Measured values as given in patent US20240043515A1 (Chugai, published 2024).
Residue numbers refer to the chain shown, from its start. Numbers in names are those of the source.

T1: human FcγRIIa H extracellular domain (human, UniProt P12318 34-217)
T1 construct: extracellular domain; also called hFcγR IIa H; FcγRIIa allotype H131
T1 sequence (looked up): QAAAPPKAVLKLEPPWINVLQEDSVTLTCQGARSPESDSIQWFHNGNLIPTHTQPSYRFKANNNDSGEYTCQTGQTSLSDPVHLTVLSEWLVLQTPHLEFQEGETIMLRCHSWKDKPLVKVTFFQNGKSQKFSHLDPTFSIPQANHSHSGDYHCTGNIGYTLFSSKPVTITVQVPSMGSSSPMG

T2: human FcγRIIa R extracellular domain (human, UniProt P12318 34-217)
T2 construct: extracellular domain; also called hFcγR IIa R; FcγRIIa allotype R131
T2 sequence (looked up): T1 sequence (looked up) with H134R

T3: human FcγRIIb extracellular domain (human, UniProt P31994 43-217)
T3 construct: extracellular domain; also called hFcγR IIb
T3 sequence (looked up): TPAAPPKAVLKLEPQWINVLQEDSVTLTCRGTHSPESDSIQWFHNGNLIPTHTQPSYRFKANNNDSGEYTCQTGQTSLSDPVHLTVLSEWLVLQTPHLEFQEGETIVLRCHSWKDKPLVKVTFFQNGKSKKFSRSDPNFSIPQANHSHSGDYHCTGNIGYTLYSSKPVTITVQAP

T4: hFcγRIIaH on Jurkat effector cells (human, UniProt P12318 34-317)
T4 sequence (looked up): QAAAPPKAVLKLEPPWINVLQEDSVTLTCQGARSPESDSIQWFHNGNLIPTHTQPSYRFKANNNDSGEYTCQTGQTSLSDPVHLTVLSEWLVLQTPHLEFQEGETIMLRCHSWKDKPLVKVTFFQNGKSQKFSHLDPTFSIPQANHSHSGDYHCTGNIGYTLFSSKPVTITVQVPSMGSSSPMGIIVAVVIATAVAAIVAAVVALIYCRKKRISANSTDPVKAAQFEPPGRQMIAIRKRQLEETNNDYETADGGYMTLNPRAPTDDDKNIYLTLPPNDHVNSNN

B1: EGL-ART4 (H240-Kn456/L73-k0//H240-H1446/L73-k0) (antibody, human IgG1, kappa)
heavy 1: QDQLVQSGAEVKKPGASVKVSCKASGFNIKDTYIQWVRQAPGQGLEWMGRIDPLRKQTKYREKFEGRVTITADTSTNTAYMELSSLRSEDTAVYYCVRSGREFDYWGQGTLVTVSSASTKGPSVFPLAPSSKSTSGGTAALGCLVKDYFPEPVTVSWNSGALTSGVHTFPAVLQSSGLYSLSSVVTVPSSSLGTQTYICNVNHKPSNTKVDKKVEPKSCDKTHTCPPCPAPEFQWGPMVFLFPPKPKDVLMISRTPEVTCVVVDVSDEEPEVKFNWYVDGVEVHNAKTKPREEQYNATYRVVSVLPVLHQDWLNGKEYKCKVSNKALPMPEEKTISKAKGQPREPQVCTLPPSRDELTKNQVSLWCLVKGFYPSDIAVEWESNGQPENNYKTTPPVLDSDGSFFLYSKLTVDKSRWQQGNVFSCSVMHEALHNHYTQKSLSLSP
heavy 2: QDQLVQSGAEVKKPGASVKVSCKASGFNIKDTYIQWVRQAPGQGLEWMGRIDPLRKQTKYREKFEGRVTITADTSTNTAYMELSSLRSEDTAVYYCVRSGREFDYWGQGTLVTVSSASTKGPSVFPLAPSSKSTSGGTAALGCLVKDYFPEPVTVSWNSGALTSGVHTFPAVLQSSGLYSLSSVVTVPSSSLGTQTYICNVNHKPSNTKVDKKVEPKSCDKTHTCPPCPAPELLAGPSVFLFPPKPKDVLMISRTPEVTCVVVDVSHEEPEVKFNWYVDGVEVHNAKTKPREEQYNATYRVVSVLPVLHQDWLNGKEYKCKVSNDALPMPEEETISKAKGQPREPQVYTLPPSRCELTKNQVSLSCAVKGFYPSDIAVEWESNGQPENNYKTTPPVLDSDGSFFLVSKLTVDKSRWQQGNVFSCSVMHEALHNHYTQKSLSLSP
light: DIQMTQSPSSLSASVGDRVTITCRASQDIHKYIAWYQQKPGQAPRLLIQYTSTLQPGVPSRFSGSGSGTDYTFTISSLQPEDIATYYCLQYEQLRTFGGGTKVEIKRTVAAPSVFIFPPSDEQLKSGTASVVCLLNNFYPREAKVQWKVDNALQSGNSQESVTEQDSKDSTYSLSSTLTLSKADYEKHKVYACEVTHQGLSSPVTKSFNRGEC
notes: Kn456: L234F/L235Q/G236W/S239M/T250V/H268D/D270E/S298A/T307P/A330M/I332E + Y349C/T366W; H1446: G236A/T250V/D270E/S298A/T307P/K326D/A330M/I332E/K334E + D356C/T366S/L368A/Y407V
B2: EGL-ART5 (H240-Kn462/L73-k0//H240-H1441/L73-k0) (antibody, human IgG1, kappa)
heavy 1: B1 heavy 1 with K325D, M329A, E331I
heavy 2: B1 heavy 2 with M329A, E331I
light: B1 light
notes: Kn462: L234F/L235Q/G236W/S239M/T250V/H268D/D270E/S298A/T307P/K326D + Y349C/T366W; H1441: G236A/T250V/D270E/S298A/T307P/K326D/K334E + D356C/T366S/L368A/Y407V
B3: EGL-ART6 (H240-Kn462/L73-k0//H240-H1445/L73-k0) (antibody, human IgG1, kappa)
heavy 1: B1 heavy 1 with K325D, M329A, E331I
heavy 2: B1 heavy 2 with M329K, E331D
light: B1 light
notes: H1445: G236A/T250V/D270E/S298A/T307P/K326D/A330K/I332D/K334E + D356C/T366S/L368A/Y407V
B4: EGL-ART10 (H240-Kn494/L73-k0//H240-H1514/L73-k0) (antibody, human IgG1, kappa)
heavy 1: B1 heavy 1 with M329A
heavy 2: B1 heavy 2 with A235G, M329A
light: B1 light
notes: Kn494: L234F/L235Q/G236W/S239M/T250V/H268D/D270E/S298A/T307P/I332E + Y349C/T366W; H1514: T250V/D270E/S298A/T307P/K326D/I332E/K334E + D356C/T366S/L368A/Y407V
B5: EGL-ART12 (H240-Kn498/L73-k0//H240-H1518/L73-k0) (antibody, human IgG1, kappa)
heavy 1: B1 heavy 1 with E331I
heavy 2: B1 heavy 2 with A235G, E331I
light: B1 light
notes: Kn498: L234F/L235Q/G236W/S239M/T250V/H268D/D270E/S298A/T307P/A330M + Y349C/T366W; H1518: T250V/D270E/S298A/T307P/K326D/A330M/K334E + D356C/T366S/L368A/Y407V

biological target: hFcγRIIIaV on Jurkat effector cells (human, UniProt P08637 17-254); assay: cell-based or functional assay
Sequence (P08637 17-254, form in doubt): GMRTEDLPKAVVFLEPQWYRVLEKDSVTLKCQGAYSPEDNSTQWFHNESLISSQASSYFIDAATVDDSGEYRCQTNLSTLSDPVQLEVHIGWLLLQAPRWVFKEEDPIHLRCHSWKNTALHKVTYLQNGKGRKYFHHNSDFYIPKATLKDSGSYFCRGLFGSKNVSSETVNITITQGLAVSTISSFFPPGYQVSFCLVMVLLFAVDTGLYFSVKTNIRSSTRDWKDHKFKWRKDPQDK

Going from B1 to B2, the “EC50 of reporter gene induction (ADCC Reporter Bioassay, Hepa1-6/hEREG target cells)” value rises from 0.000789 µg/mL to 0.00167 µg/mL (2.1-fold).

First: B3
Second: B4
The “EC50 of reporter gene induction (ADCC Reporter Bioassay, Hepa1-6/hEREG target cells)” value of the first is 14-fold higher: 0.0015 µg/mL for the first, 0.000107 µg/mL for the second.

With B5 the “EC50 of reporter gene induction (ADCC Reporter Bioassay, Hepa1-6/hEREG target cells)” value was 0.000304 µg/mL.

biological target: T5, human FcγRIa extracellular domain (human, UniProt P12314 16-292); assay: SPR; KD of G1d divided by KD of this antibody
T5 construct: extracellular domain; also called hFcγR Ia
Experimental: (§1) The extracellular domains of FcγRs were produced by the method described in WO2014104165. The interaction between the produced antibodies and human FcγRs was analyzed using Biacore 8K+ by the method below. For the running buffer, 50 mM Na-Phosphate, 150 mM NaCl, and 0.05% Tween20 (pH 7.4) was used, and measurement was performed at 25° C. The sensor chip used was a Series S SA chip (GE Healthcare) onto which CaptureSelect Human Fab-kappa Kinetics Biotin Conjugate (Thermo Fisher Scientific) was immobilized. An antibody of interest was captured onto this chip, and each FcγR diluted with the running buffer was allowed to interact with it. The chip was regenerated using 10 mM Glycine-HCl (pH 1.5), and repeatedly used to capture antibodies and perform measurement. The dissociation constants KD (mol/L) of each antibody for FcγRs were calculated using Biacore Insight Evaluation Software, with a steady state affinity model for the dissociation constant for FcγRIIb and a 1:1 Langmuir binding model for the dissociation constants for the other FcγRs (Table 2).

T5 sequence (P12314 16-292): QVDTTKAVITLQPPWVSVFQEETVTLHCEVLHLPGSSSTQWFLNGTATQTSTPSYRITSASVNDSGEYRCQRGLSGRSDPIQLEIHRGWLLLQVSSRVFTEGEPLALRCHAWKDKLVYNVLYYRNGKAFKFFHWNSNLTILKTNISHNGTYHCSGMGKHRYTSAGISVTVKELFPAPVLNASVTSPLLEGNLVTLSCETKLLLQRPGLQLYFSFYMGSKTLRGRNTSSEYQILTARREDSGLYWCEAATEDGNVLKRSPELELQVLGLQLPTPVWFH

Going from B1 to B2, the “Relative value to KD between G1d and hFcgRs” value (from here on “Relative value”) falls from 2.9 times to 0.5 times.

Compared with B3, B4 is higher in “Relative value” value: 1.2 times for the first, 3.4 times for the second.

With B5 the “Relative value” value was 3.4 times.

biological target: T6, human FcγRIIIa V extracellular domain (human, UniProt P08637 17-208); assay: SPR; KD of G1d divided by KD of this antibody
T6 construct: extracellular domain; also called hFcγR IIIa V; FcγRIIIa allotype V158
Experimental: as §1

T6 sequence (P08637 17-208 F176V): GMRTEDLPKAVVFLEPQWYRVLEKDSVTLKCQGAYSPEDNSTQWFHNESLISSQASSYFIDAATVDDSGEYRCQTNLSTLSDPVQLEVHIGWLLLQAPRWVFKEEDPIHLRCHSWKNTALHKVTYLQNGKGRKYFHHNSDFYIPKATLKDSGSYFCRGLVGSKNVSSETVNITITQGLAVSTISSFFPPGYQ

First: B1
Second: B2
The “Relative value” value of the first is higher: 462 times for the first, 92.9 times for the second.

Going from B3 to B4, the “Relative value” value rises from 322 times to 566 times.

With B5 the “Relative value” value was 158 times.

biological target: T1, human FcγRIIa H extracellular domain; assay: SPR; KD of G1d divided by KD of this antibody
Experimental: as §1

First: B1
Second: B2
The “Relative value” value of the first is lower: 6.3 times for the first, 33.9 times for the second.

Going from B3 to B4, the “Relative value” value falls from 118 times to 2.7 times.

B5 was tested, and the “Relative value” value was 3.1 times.

biological target: T2, human FcγRIIa R extracellular domain; assay: SPR; KD of G1d divided by KD of this antibody
Experimental: as §1

First: B1
Second: B2
The “Relative value” value of the first is lower: 3.2 times for the first, 10.4 times for the second.

Compared with B3, B4 is lower in “Relative value” value: 24.1 times for the first, 1.5 times for the second.

In the case of B5, the “Relative value” value is reported as 1 times.

biological target: T3, human FcγRIIb extracellular domain; assay: SPR; KD of G1d divided by KD of this antibody
Experimental: as §1

Going from B1 to B2, the “Relative value” value rises from 0.9 times to 1.3 times.

Compared with B3, B4 is lower in “Relative value” value: 3.4 times for the first, 1.4 times for the second.

With B5 the “Relative value” value was 0.5 times.

biological target: T7, human FcγRIIIa F extracellular domain (human, UniProt P08637 17-208); assay: SPR; KD of G1d divided by KD of this antibody
T7 construct: extracellular domain; also called hFcγR IIIa F; FcγRIIIa allotype F158
Experimental: as §1

T7 sequence (P08637 17-208): as the sequence (P08637 17-208 F176V) above, with V160F counted along it

Going from B1 to B2, the “Relative value” value falls from 2520 times to 148 times.

Compared with B3, B4 is higher in “Relative value” value: 987 times for the first, 1290 times for the second.

With B5 the “Relative value” value was 578 times.

biological target: T4, hFcγRIIaH on Jurkat effector cells; assay: cell-based or functional assay

First: B1
Second: B2
The “EC50 of reporter gene induction (ADCP Reporter Bioassay, Hepa1-6/hEREG target cells)” value of the first is 1.8-fold higher: 0.0432 µg/mL for the first, 0.0245 µg/mL for the second.

Going from B3 to B4, the “EC50 of reporter gene induction (ADCP Reporter Bioassay, Hepa1-6/hEREG target cells)” value rises from 0.0192 µg/mL to 0.0419 µg/mL (2.2-fold).

In the case of B5, the “EC50 of reporter gene induction (ADCP Reporter Bioassay, Hepa1-6/hEREG target cells)” value is reported as 0.085 µg/mL.

biological target: T6, human FcγRIIIa V extracellular domain; assay: SPR; KD for hFcγRIIb divided by KD for this FcγR
Experimental: as §1

Going from B1 to B2, the “A/I ratio (KD for FcγRIIb divided by KD for each FcγR)” value falls from 15000 ratio to 2060 ratio.

Going from B3 to B4, the “A/I ratio (KD for FcγRIIb divided by KD for each FcγR)” value rises from 2630 ratio to 11400 ratio.

B5 was tested, and the “A/I ratio (KD for FcγRIIb divided by KD for each FcγR)” value was 9720 ratio.

biological target: T1, human FcγRIIa H extracellular domain; assay: SPR; KD for hFcγRIIb divided by KD for this FcγR
Experimental: as §1

Compared with B1, B2 is higher in “A/I ratio (KD for FcγRIIb divided by KD for each FcγR)” value: 65.2 ratio for the first, 240 ratio for the second.

Compared with B3, B4 is lower in “A/I ratio (KD for FcγRIIb divided by KD for each FcγR)” value: 307 ratio for the first, 17.3 ratio for the second.

B5 was tested, and the “A/I ratio (KD for FcγRIIb divided by KD for each FcγR)” value was 60.3 ratio.

biological target: T2, human FcγRIIa R extracellular domain; assay: SPR; KD for hFcγRIIb divided by KD for this FcγR
Experimental: as §1

First: B1
Second: B2
The “A/I ratio (KD for FcγRIIb divided by KD for each FcγR)” value of the first is lower: 22.5 ratio for the first, 49.9 ratio for the second.

First: B3
Second: B4
The “A/I ratio (KD for FcγRIIb divided by KD for each FcγR)” value of the first is higher: 42.4 ratio for the first, 6.6 ratio for the second.

With B5 the “A/I ratio (KD for FcγRIIb divided by KD for each FcγR)” value was 12.8 ratio.

biological target: T7, human FcγRIIIa F extracellular domain; assay: SPR; KD for hFcγRIIb divided by KD for this FcγR
Experimental: as §1

Compared with B1, B2 is lower in “A/I ratio (KD for FcγRIIb divided by KD for each FcγR)” value: 9940 ratio for the first, 399 ratio for the second.

Going from B3 to B4, the “A/I ratio (KD for FcγRIIb divided by KD for each FcγR)” value rises from 976 ratio to 3160 ratio.

For B5, the “A/I ratio (KD for FcγRIIb divided by KD for each FcγR)” value was 4310 ratio.
